Experimental data taken from a protein production outcome set (Wang et al. 2014).

Assay: label from the status in PepcDB records
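Further: failed if final PepcDB status was selected cloned or expressed and not failed if soluble or beyond.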

| Sequence | protein production |
| --- | --- |
| MGHHHHHHSHMHGWTWSVPKFMKRMKVPDYKDKAVFGVPLIVHVQRTGQPLPQSIQQALRYLRSNCLDQVGLFRKSGVKSRIHALRQMNENFPENVNYEDQSAYDVADMVKQFFRDLPEPLFTNKLSETFLHIYQYVSKEQRLQAVQAAILLLADENREVLQTLLCFLNDVVNLVEENQMTPMNLAVCLAPSLFHLNLL | failed |
| MAASLRSFLEQLKRQNSLYLVKKPVNPRFELGALLKKTKGTVPMFFQNIEGYDVPAVGGIVGTRENFAQALRINKSELLAKITEAITNPGETRLLPSGPVQENVLTKGFDIGKMFPIPTFHEKDSGAFITAGIVVAKDPIYGRRFTSIRRMQLNGPNNLSILIESPGLIEQYYEFERRGQAMEVAIVLGVHPAITLSSQLPTQTFGLDKYNVASRLIGEPLPVVKCKTIDLEVPADAEIVLEGRMLPYVRHPEGPFGELMGYYGPQTMQPVVEVTAVTFRNNPIFQVIFPSSYEHKLPNALMREVVLFNHVRHVVPTVQDVHLTMAGGGRCHAIISIKKTAEGQGKQAIFAALASNKDVKHVVVVNDDVDIFDPEDVEWAIATRVQADQDIIIIPGAQGTPLEPSHNLRGVSAKMGIDATYPLAEEERFARTQIPGYDQIRLEDYLTLDW | not failed |
| MQFRSIIRIVGLLLALFSVTMLAPALVALLYRDGAGVPFVTTFFVLLFCGAMCWFPNRRHKHELKSRDGFLIVVLFWTVLGSAGSLPFLIADNPNISVTDAFFESFSALTTTGATVIVGLDELPKAILFYRQFLQWFGGMGIIVLAVAILPVLGIGGMQLYRAEIPGPVKDTKMTPRIAETAKALWYIYLSLTIACAVAFWLAGMTPFDAISHSFSTIAIGGFSTHDASMGYFDSYAINLITVVFLLISACNFTLHFAAFASGGVHPKYYWKDPEFRAFIFIQVLLFLVCFLLLLKHHSYTSPYDAFDQALFQTVSISTTAGFTTTGFADWPLFLPVLLLFSSFIGGCAGSTGGGMKVIRILLLTLQGARELKRLVHPRAVYTIKVGGSALPQRVVDAVWGFFSAYALVFVVCMLGLIATGMDELSAFSAVAATLNNLGPGLGEVALHFGDVNDKAKWVLIVSMLFGRLEIFTLLILLTPTFWRS | not failed |
| MFDNLTDRLSRTLRNISGRGRLTEDNVKDTLREVRMALLEADVALPVVREFINRVKEKAVGHEVNKSLTPGQEFVKIVRNELVAAMGEENQTLNLAAQPPAVVLMAGLQGAGKTTSVGKLGKFLREKHKKKVLVVSADVYRPAAIKQLETLAEQVGVDFFPSDVGQKPVDIVNAALKEAKLKFYDVLLVDTAGRLHVDEAMMDEIKQVHASINPVETLFVVDAMTGQDAANTAKAFNEALPLTGVVLTKVDGDARGGAALSIRHITGKPIKFLGVGEKTEALEPFHPDRIASRILGMGDVLSLIEDIESKVDRAQAEKLASKLKKGDGFDLNDFLEQLRQMKNMGGMASLMGKLPGMGQIPDNVKSQMDDKVLVRMEAIINSMTMKERAKPEIIKGSRKRRIAAGCGMQVQDVNRLLKQFDDMQRMMKKMKKGGMAKMMRSMKGMMPPGFPGR | failed |
| MGQVEVIDRRQSVFGDDIQLQKRSSSYEIISNGVFLMSTENGRSEREMVTLGAQHMKNAVHSVLIGGLGVGITADEAVHLNDHVQVHVVEIEPSVVEWQYRYLYPFSNQALEHERTAIIISDIQQWLRTNERTYDLICLDTDNGPDWMVHKQNASLYGKIGLELVRERVRVGGAVSFWSASASESFLHELETLFDRVYEHAVSISHTLPPDYVYVACRDLEHHHHHH | not failed |
| MARPAKLAKISDLFCCTTCPAIDDTCVAPCEGEAPQPFQLHDIPCPPGLHTNLIEPPDMTQNIYDDPIFFQAYSQMGRSLGGLDAAPEWPALQALLPPMNGLRVLDLGCGYGWFSRWASEHGARQVVGLDVSQKMLATARATTSAPNVQYQQEDLEQLRLPACSFDLAYSSLALHYIKDLPGLFAQVYAALVPGARLVFSIEHPIFMAPRNPGWQVDAQGRQSWPVDSYQQEGERVTDWLAEGVIKQHRTLGTLLNTLIDTGFNLRHVQEWGPTAQQIEDLPALAEERERPMLLLVAAQR | failed |
| MGSTRKGMLNVLIAAVLWGSSGVCAQYIMEQSQMSSQFLTMTRLIFAGLILLTLSFVHGDKIFSIINNHKDAISLLIFSVVGALTVQLTFLLTIEKSNAATATVLQFLSPTIIVAWFSLVRKSRPGILVFCAILTSLVGTFLLVTHGNPTSLSISPAALFWGIASAFAAAFYTTYPSTLIARYGTLPVVGWSMLIGGLILLPFYARQGTNFVVNGSLILAFFYLVVIGTSLTFSLYLKGAQLIGGPKASILSCAEPLSSALLSLLLLGITFTLPDWLGTLLILSSVILISMDSRRRARKINRPARHK | failed |
